One block for each binder: values may come before it.
Target: T1, hBCMA-hFc (human, UniProt Q02223 1-54, limits assumed)
T1 construct: not shown: human Fc (hFc)
T1 sequence (looked up): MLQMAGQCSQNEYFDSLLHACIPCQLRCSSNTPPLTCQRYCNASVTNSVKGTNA
Test: Fortebio Octet K2 / Nicoya OpenSPR, hBCMA-hFc loaded on sensor, scFv in solution

- Kd: 16.4 nM
- koff: 0.00437 s⁻¹
- kon: 266000 M⁻¹ s⁻¹
B1: ScFv2 (scFv)
scFv: DIVLTQSPASLAVSLGQRATITCRASESVSIHGTHLMHWYQQKPGQPPVLVIYAASNLESGVPARFSGSGSGTDFTLKIHPVEAEDVGVYYCQQSIEDPRTFGGGTKLEIKGSTSGSGKPGSGEGSTKGQVQLVQSGPEVKKPGASVKVSCKASGYTFTDYYMNWVRQMHGKGLEWMGVINPYNGGTDYNQKFKGRVTITADKSTSTAYMELSSLRSEDTAVYYCARSVYDYPFDYWGQGTLVTVSS
notes: also called 人源化ScFv2; 靶向BCMA人源化单克隆抗体

- Kd: 4.65 nM
- koff: 0.000438 s⁻¹
- kon: 94200 M⁻¹ s⁻¹
B2: ScFv1 (scFv)
scFv: DIVMTQSPDSLAVSLGERATINCRASESVSIHGTHLMHWYQQLPGTPPKLLIYAASNLESGVPDRFSGSGSGTDFTLKISPVEAEDVGVYYCQQSIEDPRTFGGGTKLEIKGSTSGSGKPGSGEGSTKGQVQLVQSGPALVKPGASVKVSCKASGYTFTDYYMNWVRQAHGQGLEWMGVINPYNGGTDYNQKFKGRVTMTRDTSISTAYMELSSLRSEDTAVYYCARSVYDYPFDYWGQGTLVTVSS
notes: The scFv is VL-Linker-VH, expressed in CHO cells and purified; Any tag on the purified protein is not described for ScFv1; also called 靶向BCMA人源化单克隆抗体; 抗BCMA的人源化单链抗体

From patent CN111944047A (CHONGQING PREC BIOTECH CO LTD, dated 2020)
